Reference: paper PMC7555893, “Structural role of essential light chains in the apicomplexan glideosome” (Communications Biology, 2020)
Residue numbers refer to the chain shown, from its start. In names and notes the source's numbering stands.

Experiments:
[1] = target: Pre-complex of TgELC2 with TgMyoA-C (T. gondii) (UniProt O00934); assay: ITC; 200 uM protein (syringe) injected 19 x 2 uL into 20 uM pre-formed complex of light chain and MyoA peptide (cell, 1:1.1); 20 mM HEPES pH 7.5, 150 mM NaCl, 0.5 mM TCEP with 1 mM CaCl2; 25 °C; one-site model
[2] = target: P. falciparum myosin A tail-interacting protein, short construct (MTIP-S) (P. falciparum 3D7) (UniProt Q8I4W8); assay: ITC; MTIP in the cell, PfMyoA peptide in the syringe; one-site model; the conditions of this titration are not told
[3] = target: Pre-complex of TgELC1 with TgMyoA-C (T. gondii) (UniProt O00934); assay: ITC; 200 uM protein (syringe) injected 19 x 2 uL into 20 uM pre-formed complex of light chain and MyoA peptide (cell, 1:1.1); 20 mM HEPES pH 7.5, 150 mM NaCl, 0.5 mM TCEP with 1 mM CaCl2; 25 °C; one-site model
[4] = target: Pre-complex of TgELC2 R17A with TgMyoA-C (T. gondii) (UniProt O00934); assay: as above
[5] = target: T. gondii essential light chain 1 (TgELC1) (T. gondii); assay: ITC; 200 uM peptide (syringe) injected 19 x 2 uL into 20 uM protein (cell); 20 mM HEPES pH 7.5, 150 mM NaCl, 0.5 mM TCEP with 5 mM EDTA; 25 °C; one-site model
[6] = target: T. gondii essential light chain 2 (TgELC2) (T. gondii); assay: as above
[7] = target: T. gondii essential light chain 1 (TgELC1) (T. gondii); assay: ITC; 200 uM peptide (syringe) injected 19 x 2 uL into 20 uM protein (cell); 20 mM HEPES pH 7.5, 150 mM NaCl, 0.5 mM TCEP with 5 mM CaCl2; 25 °C; one-site model
[8] = target: T. gondii essential light chain 2 (TgELC2) (T. gondii); assay: as above
TgELC2 E10A (T. gondii) = assay: as above
[9] = target: TgELC2 E10A+H110A (T. gondii); assay: as above
TgELC2 F79A (T. gondii) = assay: as above
TgELC2 S101A (T. gondii) = assay: as above
TgELC2 S102A (T. gondii) = assay: as above
[10] = target: TgELC2 S102E (phosphomimetic) (T. gondii); assay: as above
[11] = target: T1, Pre-complex of MTIP-S with PfMyoA-C (P. falciparum 3D7 | P. falciparum, UniProt Q8I4W8;Q8IDR3); assay: ITC; 200 uM protein (syringe) injected 19 x 2 uL into 20 uM pre-formed complex of light chain and MyoA peptide (cell, 1:1.1); 20 mM HEPES pH 7.5, 150 mM NaCl, 0.5 mM TCEP with 1 mM CaCl2; 25 °C; one-site model; settings: both partners purified
T1 construct: also called MTIP pre-complex with MyoA-C; MTIP/PfMyoA-C complex; source: formed from purified MTIP-S (E. coli) and the MyoA peptide in 1:1.1 molar ratio, 1 h at 4 °C
T1 sequence 1: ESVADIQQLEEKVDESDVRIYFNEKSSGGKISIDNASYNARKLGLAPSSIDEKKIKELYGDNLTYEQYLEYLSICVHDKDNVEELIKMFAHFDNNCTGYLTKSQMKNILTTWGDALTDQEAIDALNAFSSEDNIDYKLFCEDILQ
T1 sequence 2: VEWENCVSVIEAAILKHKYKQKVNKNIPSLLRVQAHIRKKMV

MTIP residues 77-204 = target: T2, MTIP residues 77-204 (P. falciparum 3D7, UniProt Q8I4W8 77-204); assay: crystal structure; settings: both partners purified
T2 construct: source: recombinantly expressed as a dimeric complex with PfMyoA-C, purified with PfELC (NiNTA IMAC, TEV, SEC)
T2 sequence: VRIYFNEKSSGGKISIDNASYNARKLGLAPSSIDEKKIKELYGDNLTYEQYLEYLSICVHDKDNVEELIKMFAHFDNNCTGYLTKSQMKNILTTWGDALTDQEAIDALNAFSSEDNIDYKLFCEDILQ

For MLC1-S K168A (domain or fragment), the Kd [1] was 1.2 nM, the dH [1] was -47.7 kcal/mol and the stoichiometry N [1] was 0.79.

MLC1-S Q169A (domain or fragment) was tested, and the Kd [1] was 2.3 nM, the dH [1] was -48.8 kcal/mol and the stoichiometry N [1] was 0.89.

For PfMyoA-C^ELC peptide, the Kd [2] was 303 nM, the dH [2] was -14.4 kcal/mol and the stoichiometry N [2] was 0.74.

With “T. gondii myosin light chain 1, short construct (MLC1-S) (domain or fragment)” the Kd [3] was 4.7 nM, the dH [3] was -39.1 kcal/mol and the Kd [4] was 4.6 nM. The dH [4] was -49.7 kcal/mol, the Kd [1] was 0.6 nM and the dH [1] was -47.6 kcal/mol. The stoichiometry N [1] was 0.81.

“TgMyoA-C^ELC peptide (from UniProt O00934 777-798)” gave a Kd [5] of 57 nM, a dH [5] of -13 kcal/mol and a stoichiometry N [5] of 0.81. The Kd [6] was 82 nM, the dH [6] was -18 kcal/mol and the stoichiometry N [6] was 0.77. The Kd [7] was 36 nM, the dH [7] was -13 kcal/mol and the stoichiometry N [7] was 1.05. The Kd [8] was 39 nM, the dH [8] was -15 kcal/mol and the stoichiometry N [8] was 0.85. For the same molecule, the Kd (TgELC2 E10A (T. gondii)) was 190 nM, the dH (TgELC2 E10A (T. gondii)) was -17 kcal/mol and the stoichiometry N (TgELC2 E10A (T. gondii)) was 0.79. The Kd [9] was 1100 nM, the dH [9] was -21 kcal/mol and the stoichiometry N [9] was 0.75. It also gave a Kd (TgELC2 F79A (T. gondii)) of 280 nM, a dH (TgELC2 F79A (T. gondii)) of -18 kcal/mol and a stoichiometry N (TgELC2 F79A (T. gondii)) of 0.84. It also gave a Kd (TgELC2 S101A (T. gondii)) of 280 nM, a dH (TgELC2 S101A (T. gondii)) of -18 kcal/mol and a stoichiometry N (TgELC2 S101A (T. gondii)) of 0.88. The Kd (TgELC2 S102A (T. gondii)) was 76 nM, the dH (TgELC2 S102A (T. gondii)) was -16 kcal/mol and the stoichiometry N (TgELC2 S102A (T. gondii)) was 0.79. The Kd [10] was 140 nM, the dH [10] was -18 kcal/mol and the stoichiometry N [10] was 0.77.

B1: P. falciparum essential light chain (PfELC) (natural protein)
chain: MASDMEEKFREAFILFSSCSDHIEMYKFFELMNSFGIILTNDEKAALPNDINMDYWLNFAKKHYNYEQPFKHINNVNEQNTNVQIKIDNFLGIMKALDTRLTESDLNILLQITNPENKSTLNLKTVSQKLTESI
notes: also called full-length PfELC; source: E. coli BL21-CodonPlus(DE3)-RIL, purified (Ni-IMAC, TEV, SEC)
For B1, the Kd [11] was 109 ± 6.2 nM, the dH [11] was -13.4 ± 0.1 kcal/mol and the “stoichiometry N” value [11] was 0.86 ± 0.01.

B2: PfELC S127D (phosphomimetic) (natural protein)
chain: B1 chain with S127D
notes: source: E. coli, purified (expressed and purified under identical conditions as the wild type)
For B2, the Kd [11] was 260 ± 26 nM, the dH [11] was -12.6 ± 0.2 kcal/mol and the “stoichiometry N” value [11] was 0.81 ± 0.01.

B3: PfMyoA-C (775-816), recombinant, expressed with MTIP 77-204 (domain or fragment)
chain: T1 sequence 2
B3: binds (MTIP residues 77-204).
